Columns and labels:
Human c-Met (human) [1] = target: Human c-Met (human) (UniProt P08581); experiment: cell-based or functional assay
Human c-Met (human) [2] = target: Human c-Met (human) (UniProt P08581); experiment: competition flow cytometry: 1 nM biotinylated hHGF on A549 cells
[3] = target: cynomolgus c-Met (cynomolgus monkey); experiment: competition FACS: 0.5 nM biotinylated HGF on BAF3 cells with cynomolgus c-Met
[4] = target: recombinant human c-Met/Fc chimera (R&D systems) (human); experiment: HGF/c-Met competition Alphascreen: biotinylated hHGF, human c-Met/Fc
[5] = target: recombinant human c-Met/Fc chimera (R&D systems) (human); experiment: HGF/c-Met competition Alphascreen, in absence of HSA
[6] = target: recombinant human c-Met/Fc chimera (R&D systems) (human); experiment: HGF/c-Met competition Alphascreen, in presence of 5 uM HSA

recombinant human c-Met/Fc chimera (R&D systems) (human), sequence (chain, as listed by the source mutant limits assumed): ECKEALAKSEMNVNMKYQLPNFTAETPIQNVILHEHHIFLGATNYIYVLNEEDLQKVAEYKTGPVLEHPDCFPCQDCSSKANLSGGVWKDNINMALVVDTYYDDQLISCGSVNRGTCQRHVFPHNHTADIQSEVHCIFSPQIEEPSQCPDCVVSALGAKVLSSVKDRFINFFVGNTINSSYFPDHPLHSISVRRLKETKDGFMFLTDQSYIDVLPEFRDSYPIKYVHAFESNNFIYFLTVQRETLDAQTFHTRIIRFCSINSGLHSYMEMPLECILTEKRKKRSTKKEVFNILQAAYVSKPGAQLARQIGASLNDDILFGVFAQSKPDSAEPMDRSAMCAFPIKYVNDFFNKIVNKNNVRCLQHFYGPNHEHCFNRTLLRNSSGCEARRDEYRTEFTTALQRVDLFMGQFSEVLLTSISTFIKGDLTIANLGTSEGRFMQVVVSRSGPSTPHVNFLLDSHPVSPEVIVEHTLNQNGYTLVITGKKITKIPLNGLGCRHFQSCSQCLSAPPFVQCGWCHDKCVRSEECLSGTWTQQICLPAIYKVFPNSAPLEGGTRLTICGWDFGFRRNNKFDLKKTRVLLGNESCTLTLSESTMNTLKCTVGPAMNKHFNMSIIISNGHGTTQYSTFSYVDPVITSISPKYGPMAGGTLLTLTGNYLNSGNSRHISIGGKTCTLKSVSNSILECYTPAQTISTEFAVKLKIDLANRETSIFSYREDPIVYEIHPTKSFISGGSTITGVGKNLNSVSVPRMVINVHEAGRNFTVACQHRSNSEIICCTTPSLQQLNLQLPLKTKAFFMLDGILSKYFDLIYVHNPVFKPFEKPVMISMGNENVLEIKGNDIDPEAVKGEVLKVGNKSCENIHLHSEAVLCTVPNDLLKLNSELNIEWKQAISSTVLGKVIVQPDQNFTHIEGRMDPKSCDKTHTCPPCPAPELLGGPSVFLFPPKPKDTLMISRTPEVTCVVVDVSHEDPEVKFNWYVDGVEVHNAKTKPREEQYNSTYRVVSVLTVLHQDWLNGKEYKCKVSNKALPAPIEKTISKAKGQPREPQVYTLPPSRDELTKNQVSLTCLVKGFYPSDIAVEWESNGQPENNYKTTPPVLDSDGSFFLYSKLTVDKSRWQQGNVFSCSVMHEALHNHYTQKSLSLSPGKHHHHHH
Human c-Met (human), sequence (P08581 25-1390 limits assumed): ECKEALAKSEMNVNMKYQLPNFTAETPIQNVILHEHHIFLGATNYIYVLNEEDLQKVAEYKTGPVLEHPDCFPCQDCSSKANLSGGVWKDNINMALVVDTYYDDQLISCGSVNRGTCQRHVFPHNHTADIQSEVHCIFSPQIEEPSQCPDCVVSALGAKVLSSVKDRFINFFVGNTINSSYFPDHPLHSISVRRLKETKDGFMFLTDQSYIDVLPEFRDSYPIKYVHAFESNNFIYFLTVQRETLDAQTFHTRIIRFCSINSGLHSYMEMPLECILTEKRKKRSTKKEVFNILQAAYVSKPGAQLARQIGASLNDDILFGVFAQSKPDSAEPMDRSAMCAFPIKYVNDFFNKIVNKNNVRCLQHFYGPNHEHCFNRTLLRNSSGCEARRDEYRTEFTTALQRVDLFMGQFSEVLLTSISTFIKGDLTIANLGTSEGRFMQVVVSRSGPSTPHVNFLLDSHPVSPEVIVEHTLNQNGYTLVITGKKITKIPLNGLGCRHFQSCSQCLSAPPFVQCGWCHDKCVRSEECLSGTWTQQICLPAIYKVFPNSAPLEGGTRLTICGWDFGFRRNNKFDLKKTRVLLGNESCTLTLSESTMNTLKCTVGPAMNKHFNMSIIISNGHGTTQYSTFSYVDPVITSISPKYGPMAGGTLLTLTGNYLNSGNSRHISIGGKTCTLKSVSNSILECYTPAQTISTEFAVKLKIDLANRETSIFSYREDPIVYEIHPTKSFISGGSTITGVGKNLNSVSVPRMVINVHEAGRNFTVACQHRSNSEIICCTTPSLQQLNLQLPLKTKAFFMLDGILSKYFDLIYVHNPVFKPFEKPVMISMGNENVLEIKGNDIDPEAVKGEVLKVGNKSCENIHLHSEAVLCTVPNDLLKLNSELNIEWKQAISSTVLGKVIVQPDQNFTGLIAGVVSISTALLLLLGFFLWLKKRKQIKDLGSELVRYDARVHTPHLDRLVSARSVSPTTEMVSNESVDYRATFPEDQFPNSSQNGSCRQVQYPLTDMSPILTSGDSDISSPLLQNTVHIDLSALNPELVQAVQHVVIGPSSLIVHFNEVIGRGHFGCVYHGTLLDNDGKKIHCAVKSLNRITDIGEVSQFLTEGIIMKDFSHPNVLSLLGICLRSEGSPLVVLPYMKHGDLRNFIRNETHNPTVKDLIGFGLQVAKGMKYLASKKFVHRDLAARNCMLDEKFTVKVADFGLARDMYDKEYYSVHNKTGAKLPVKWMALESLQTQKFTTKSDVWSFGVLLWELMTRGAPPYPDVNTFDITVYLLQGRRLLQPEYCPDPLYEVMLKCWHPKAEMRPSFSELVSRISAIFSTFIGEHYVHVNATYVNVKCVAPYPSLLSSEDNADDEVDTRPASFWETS
cynomolgus c-Met (cynomolgus monkey), sequence (A0M8R7 25-1381 S170N/I621T limits assumed): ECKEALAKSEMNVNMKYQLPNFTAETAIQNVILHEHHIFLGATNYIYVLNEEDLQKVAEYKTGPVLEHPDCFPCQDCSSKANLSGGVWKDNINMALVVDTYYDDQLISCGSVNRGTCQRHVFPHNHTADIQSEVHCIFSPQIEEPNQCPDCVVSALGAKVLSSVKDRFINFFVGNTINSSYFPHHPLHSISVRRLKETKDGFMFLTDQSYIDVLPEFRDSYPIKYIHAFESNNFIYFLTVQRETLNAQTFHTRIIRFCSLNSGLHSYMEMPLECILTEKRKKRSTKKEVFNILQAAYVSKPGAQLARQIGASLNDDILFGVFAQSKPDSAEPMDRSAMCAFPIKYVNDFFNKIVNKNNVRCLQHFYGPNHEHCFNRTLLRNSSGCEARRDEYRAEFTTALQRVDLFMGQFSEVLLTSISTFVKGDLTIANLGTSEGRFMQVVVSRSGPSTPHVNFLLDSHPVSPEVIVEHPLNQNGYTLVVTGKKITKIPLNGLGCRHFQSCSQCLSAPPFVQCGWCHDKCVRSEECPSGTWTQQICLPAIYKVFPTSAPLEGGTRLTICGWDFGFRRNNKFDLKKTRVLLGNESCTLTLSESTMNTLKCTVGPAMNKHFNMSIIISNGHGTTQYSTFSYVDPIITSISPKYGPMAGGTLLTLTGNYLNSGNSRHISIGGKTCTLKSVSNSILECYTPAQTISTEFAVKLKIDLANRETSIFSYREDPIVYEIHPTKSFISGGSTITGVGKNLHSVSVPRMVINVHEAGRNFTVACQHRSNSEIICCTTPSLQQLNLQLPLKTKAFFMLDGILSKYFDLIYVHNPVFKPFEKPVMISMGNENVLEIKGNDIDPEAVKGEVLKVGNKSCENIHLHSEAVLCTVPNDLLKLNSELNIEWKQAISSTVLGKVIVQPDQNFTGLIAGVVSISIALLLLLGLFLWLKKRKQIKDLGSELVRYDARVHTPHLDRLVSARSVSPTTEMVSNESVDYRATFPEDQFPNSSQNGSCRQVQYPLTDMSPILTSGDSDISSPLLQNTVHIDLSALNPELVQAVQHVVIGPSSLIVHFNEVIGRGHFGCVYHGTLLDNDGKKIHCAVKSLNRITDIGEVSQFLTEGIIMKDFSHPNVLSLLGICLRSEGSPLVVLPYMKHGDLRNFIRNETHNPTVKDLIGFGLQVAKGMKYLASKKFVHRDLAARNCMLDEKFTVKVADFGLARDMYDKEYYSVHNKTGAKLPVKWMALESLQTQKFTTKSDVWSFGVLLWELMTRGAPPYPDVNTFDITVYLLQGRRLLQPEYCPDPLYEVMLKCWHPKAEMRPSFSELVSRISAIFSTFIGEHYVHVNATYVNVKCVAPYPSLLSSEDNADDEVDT

| Substance | concentration of maximal c-Met phosphorylation in A549 cells (Human c-Met (human) [1]) [nM] | IC50 (Human c-Met (human) [2]) [nM] | IC50 [3] [nM] | % inhibition of HGF-dependent A549 cell migration (Human c-Met (human) [1]) [%] | % inhibition of HGF-dependent c-Met phosphorylation, A549 cells, experiment 1 (Human c-Met (human) [1]) [%] | % inhibition of HGF-dependent c-Met phosphorylation, A549 cells, experiment 2 (Human c-Met (human) [1]) [%] | % inhibition of HGF-dependent proliferation of BxPC3 cells (Human c-Met (human) [1]) [%] | IC50, HGF-dependent A549 cell migration (Human c-Met (human) [1]) [nM] | IC50, HGF-dependent c-Met phosphorylation, A549 cells, experiment 1 (Human c-Met (human) [1]) [nM] | IC50, HGF-dependent c-Met phosphorylation, A549 cells, experiment 2 (Human c-Met (human) [1]) [nM] | IC50, HGF-dependent proliferation of BxPC3 cells (Human c-Met (human) [1]) [nM] | % inhibition [4] [%] | IC50 [4] [nM] | IC50 [5] [nM] | IC50 [6] [nM] |
| --- | --- | --- | --- | --- | --- | --- | --- | --- | --- | --- | --- | --- | --- | --- | --- |
| anti-c-Met antibody 5D5 | 37 | 2.72 | 6.7 |  |  |  |  |  |  |  |  |  |  |  |  |
| anti-c-Met antibody fragment 5D5 Fab from mAb |  | 11.3 |  | 112 | 96.4 | 95.9 | 94.8 | 5.48 | 10.4 | 9.09 | 34.3 | 101 | 1.3 | 3.2 | 3.1 |

From patent US20120244164A1
